The values that follow come from patent publication US20080193431.

In the data set the target is T1, Ac-DEVD-CHO.
T1 chain: DEVD

B1: caspase-3 (protein)
chain: SGISLDNSYKMDYPEMGLCIIINNKNFHKSTGMTSRSGTDVDAANLRETFRNLKYEVRNKNDLTREEIVELMRDVSKEDHSKRSSFVCVLLSHGEEGIIFGTNGPVDLKKITNFFRGDRCRSLTGKPKLFIIQACRGTELDCGIETDSGVDDDMACHKIPVEADFLYAYSTAPGYYSWRNSKDGSWFIQSLCAMLKQYADKLEFMHILTRVNRKVATEFESFSFDATFHAKKQIPCIVSMLTKELYFYH
As to B1, the “enzyme activity (caspase-3 cleavage of PPC, HPLC)” value is recorded as “completely blocked the enzyme activity”.
